Laboratory results reported in patent publication US20260152753.

Test system: κ-casein (in skim milk)

## PEP4 aspartyl protease of the Pichia pastoris host cell
  SDS electrophoresis after 24 hours at 5 °C, 0.5% b-lactoglobulin from a pep4-containing host, heated and unheated: the k-casein peak in both the heated and unheated samples had markedly reduced in size and a peak in the position expected for para-k-casein was present
  SDS-PAGE of heated skim milk with B-lac from a pep4-containing host: κ-casein band and para-κ-casein band: the band intensity of the k-casein band decreased and a peptide band consistent with that of para-k-casein appeared
  SDS-PAGE of unheated skim milk with B-lac from a pep4-containing host: κ-casein band and para-κ-casein band: the band intensity of the k-casein band decreased and a peptide band consistent with that of para-k-casein appeared
  lab-on-a-chip para-κ-casein peak area 24 h after 80 °C/30 min treatment, sample B-lac 1A (start: 0): After 24 hours, the peak area was 115.2 and 35.82 for κ-casein and para-κ-casein, respectively
  lab-on-a-chip para-κ-casein peak area 24 h after 120 °C/10 min treatment, sample B-lac 1A (start: 0): After 24 hours, the peak area was 179.4 and 16.12 for κ-casein and para-κ-casein, respectively
  lab-on-a-chip peak area of para-κ-casein formed at 24 h at 5 °C, sample B-lac 1A (0 h: 0): 147 peak area
  lab-on-a-chip peak area of para-κ-casein formed at 24 h at 5 °C, sample B-lac 1B (0 h: 0): 56.1 peak area
  lab-on-a-chip κ-casein peak area 24 h after 80 °C/30 min treatment, sample B-lac 1A (start: 249.48): After 24 hours, the peak area was 115.2 and 35.82 for κ-casein and para-κ-casein, respectively
  lab-on-a-chip κ-casein peak area 24 h after 120 °C/10 min treatment, sample B-lac 1A (start: 249.6): After 24 hours, the peak area was 179.4 and 16.12 for κ-casein and para-κ-casein, respectively
  lab-on-a-chip κ-casein peak area at 24 h at 5 °C, sample B-lac 1A (0 h: 255): 91.5 (64% degraded)
  lab-on-a-chip κ-casein peak area at 24 h at 5 °C, sample B-lac 1B (0 h: 253.98): 138.72 (46% degraded)
  microfluidic chip SDS-PAGE of skim milk with about 1% B-Lac 1A held 0, 24 or 48 hours at room temperature: showed evidence of proteolysis on storage with a decrease in the band associated with k-casein, and a new peptide peak appearing
  κ-casein degraded 24 h after 80 °C/30 min treatment, sample B-lac 1A: indicating that κ-casein had degraded by 54%
  κ-casein degraded 24 h after 120 °C/10 min treatment, sample B-lac 1A: indicating that κ-casein had degraded by 72%
  κ-casein degraded after 24 h at 5 °C, sample B-lac 1A: 91.5 (64% degraded)
  κ-casein degraded after 24 h at 5 °C, sample B-lac 1B: 138.72 (46% degraded)
